Experimental data: doi:10.1101/2023.09.15.558033

How the values were obtained:
[1] = molecular target: Hsp60 C-terminal deletion mutant Δ522 (terminal 26 residues removed) (human); assay: cryo-EM structure
[2] = molecular target: Hsp60 C-terminal deletion mutant Δ532 (terminal 16 residues removed) (human)

## Hsp60 C-terminal deletion mutant Δ522 (terminal 26 residues removed) (domain or fragment)
[1]
  stoichiometry N: 14

B1: human malate dehydrogenase (hMDH), acid-denatured (enzyme)
chain: AKVAVLGASGGIGQPLSLLLKNSPLVSRLTLYDIAHTPGVAADLSHIETKAAVKGYLGPEQLPDCLKGCDVVVIPAGVPRKPGMTRDDLFNTNATIVATLTAACAQHCPEAMICVIANPVNSTIPITAEVFKKHGVYNPNKIFGVTTLDIVRANTFVAELKGLDPARVNVPVIGGHAGKTIIPLISQCTPKVDFPQDQLTALTGRIQEAGTEVVKAKAGAGSATLSMAYAGARFVFSLVDAMNGKEGVVECSFVKSQETECTYFSTPLLLGKKGIEKNLGIGKVSSFEEKMISDAIPELKASIKKGEDFVKTLK
[2]
  refolding of denatured hMDH (hMDH activity), loss against wild-type Hsp60: 27%
